Legend:
[1] = target: T1, macrocyclic peptide CP14, fluorescein-labeled (CP14^F) (N-terminal N-chloroacetyl-D-tyrosine joined by a thioether to a cysteine; fluorescein on the side chain of the C-terminal lysine; C-terminal amide); experiment: FP; outward-facing, Mg-ATP trapped, detergent-solubilized
[2] = target: T2, macrocyclic peptide CP12, fluorescein-labeled (CP12^F) (N-terminal N-chloroacetyl-D-tyrosine joined by a thioether to a cysteine; fluorescein on the side chain of the C-terminal lysine; C-terminal amide); experiment: as above
[3] = target: T1, macrocyclic peptide CP14, …; experiment: FP; inward-facing, no Mg-ATP, detergent-solubilized
[4] = target: T2, macrocyclic peptide CP12, …; experiment: as above

B1: TmrA^E523QB (catalytically reduced variant of TmrAB) (complex)
chain 1: MTEDTYSKAFDRALFARILRYVWPYRLQVVLALLFLLVVTLAAAATPLFFKWAIDLALVPTEPRPLAERFHLLLWISLGFLAVRAVHFAATYGETYLIQWVGQRVLFDLRSDLFAKLMRLHPGFYDRNPVGRLMTRVTSDVDAINQFITGGLVGVIADLFTLVGLLGFMLFLSPKLTLVVLLVAPVLLAVTTWVRLGMRSAYREMRLRLARVNAALQENLSGVETIQLFVKEREREEKFDRLNRDLFRAWVEIIRWFALFFPVVGFLGDFAVASLVYYGGGEVVRGAVSLGLLVAFVDYTRQLFQPLQDLSDKFNLFQGAMASAERIFGVLDTEEELKDPEDPTPIRGFRGEVEFRDVWLAYTPKGVEPTEKDWVLKGVSFRVRPGEKVALVGATGAGKTSVVSLIARFYDPQRGCVFLDGVDVRRYRQEELRRHVGIVLQEPFLFSGTVLDNLRLFDPSVPPERVEEVARFLGAHEFILRLPKGYQTVLGERGAGLSTGEKQLLALVRALLASPDILLILDQATASVDSETEKRLQEALYKAMEGRTSLIIAHRLSTIRHVDRILVFRKGRLVEEGSHEELLAKGGYYAALYRLQFQEA
chain 2: MTGRSAAPLLRRLWPYVGRYRWRYLWAVLAGLVSIFFFVLTPYFLRLAVDAVQAGRGFGVYALAIVASAALSGLLSYAMRRLAVVASRQVEYDLRRDLLHHLLTLDRDFYHKHRVGDLMNRLNTDLSAVREMVGPGILMGSRLSFLVLLAFLSMYAVNARLAFYLTLILPGIFLAMRFLLRLIDRRYREAQEVFDRISTLAQEAFSGIRVVKGYALERRMVAWFQDLNRLYVEKSLALARVEGPLHALLGFLMGFAFLTVLWAGGAMVVRGELSVGELVQFNAYLAQLTWPILGLGWVMALYQRGLTSLRRLFELLDEKPAIRDEDPLPLALEDLSGEVRFEGVGLKRDGRWLLRGLTLTIPEGMTLGITGRTGSGKSLLAALVPRLLDPSEGRVYVGGHEARRIPLAVLRKAVGVAPQEPFLFSETILENIAFGLDEVDRERVEWAARLAGIHEEILAFPKGYETVLGERGITLSGGQRQRVALARALAKRPKILILDDALSAVDAETEARILQGLKTVLGKQTTLLISHRTAALRHADWIIVLDGGRIVEEGTHESLLQAGGLYAEMDRLQKEVEA
Which Kd [1] does the source give for B1 here?
Its Kd is 0.05 µM.

What about the Kd [2] of the same binder?
The Kd was 0.35 µM.

B2: TmrAB (heterodimeric ABC transport complex from Thermus thermophilus, wild type) (complex)
chain 1: MTEDTYSKAFDRALFARILRYVWPYRLQVVLALLFLLVVTLAAAATPLFFKWAIDLALVPTEPRPLAERFHLLLWISLGFLAVRAVHFAATYGETYLIQWVGQRVLFDLRSDLFAKLMRLHPGFYDRNPVGRLMTRVTSDVDAINQFITGGLVGVIADLFTLVGLLGFMLFLSPKLTLVVLLVAPVLLAVTTWVRLGMRSAYREMRLRLARVNAALQENLSGVETIQLFVKEREREEKFDRLNRDLFRAWVEIIRWFALFFPVVGFLGDFAVASLVYYGGGEVVRGAVSLGLLVAFVDYTRQLFQPLQDLSDKFNLFQGAMASAERIFGVLDTEEELKDPEDPTPIRGFRGEVEFRDVWLAYTPKGVEPTEKDWVLKGVSFRVRPGEKVALVGATGAGKTSVVSLIARFYDPQRGCVFLDGVDVRRYRQEELRRHVGIVLQEPFLFSGTVLDNLRLFDPSVPPERVEEVARFLGAHEFILRLPKGYQTVLGERGAGLSTGEKQLLALVRALLASPDILLILDEATASVDSETEKRLQEALYKAMEGRTSLIIAHRLSTIRHVDRILVFRKGRLVEEGSHEELLAKGGYYAALYRLQFQEA
chain 2: MTGRSAAPLLRRLWPYVGRYRWRYLWAVLAGLVSIFFFVLTPYFLRLAVDAVQAGRGFGVYALAIVASAALSGLLSYAMRRLAVVASRQVEYDLRRDLLHHLLTLDRDFYHKHRVGDLMNRLNTDLSAVREMVGPGILMGSRLSFLVLLAFLSMYAVNARLAFYLTLILPGIFLAMRFLLRLIDRRYREAQEVFDRISTLAQEAFSGIRVVKGYALERRMVAWFQDLNRLYVEKSLALARVEGPLHALLGFLMGFAFLTVLWAGGAMVVRGELSVGELVQFNAYLAQLTWPILGLGWVMALYQRGLTSLRRLFELLDEKPAIRDEDPLPLALEDLSGEVRFEGVGLKRDGRWLLRGLTLTIPEGMTLGITGRTGSGKSLLAALVPRLLDPSEGRVYVGGHEARRIPLAVLRKAVGVAPQEPFLFSETILENIAFGLDEVDRERVEWAARLAGIHEEILAFPKGYETVLGERGITLSGGQRQRVALARALAKRPKILILDDALSAVDAETEARILQGLKTVLGKQTTLLISHRTAALRHADWIIVLDGGRIVEEGTHESLLQAGGLYAEMDRLQKEVEA
B2 was tested. Which Kd [3] did it give?
Its Kd is 0.1 µM.

What about the Kd [4] of the same binder?
The Kd was 0.14 µM.

— publication PMC8116058 (2021)
